According to US20140314789:

Target: Flag-tagged calcineurin-defective (ΔCalna) CRTC2 (UniProt Q3U182)
Sequence (Q3U182 whole entry, looked up, stated change not applied): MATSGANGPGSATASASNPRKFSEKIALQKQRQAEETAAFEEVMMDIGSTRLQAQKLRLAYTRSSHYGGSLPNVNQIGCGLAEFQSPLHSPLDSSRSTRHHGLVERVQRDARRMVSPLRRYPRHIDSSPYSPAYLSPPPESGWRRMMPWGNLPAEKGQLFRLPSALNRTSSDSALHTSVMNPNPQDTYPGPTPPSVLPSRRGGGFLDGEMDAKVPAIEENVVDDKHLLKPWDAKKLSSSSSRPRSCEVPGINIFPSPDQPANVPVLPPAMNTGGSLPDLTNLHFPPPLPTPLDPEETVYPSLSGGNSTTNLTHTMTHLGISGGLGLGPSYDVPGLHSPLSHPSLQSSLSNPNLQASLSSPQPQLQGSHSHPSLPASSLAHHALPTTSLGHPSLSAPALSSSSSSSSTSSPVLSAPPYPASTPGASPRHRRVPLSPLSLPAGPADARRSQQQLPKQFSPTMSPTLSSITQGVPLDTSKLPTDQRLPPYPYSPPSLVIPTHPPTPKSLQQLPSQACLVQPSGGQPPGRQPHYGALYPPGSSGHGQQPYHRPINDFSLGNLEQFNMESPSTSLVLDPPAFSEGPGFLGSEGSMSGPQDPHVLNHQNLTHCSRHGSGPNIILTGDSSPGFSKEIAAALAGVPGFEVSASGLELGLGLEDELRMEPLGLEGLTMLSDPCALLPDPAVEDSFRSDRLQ

HA-tagged calcineurin A (Calna)
glucagon-dependent dephosphorylation of CRTC2, nuclear translocation, CRE-luc activation: mutation of both motifs disrupted the glucagon-dependent dephosphorylation of CRTC2 (FIG. 33B) and prevented its nuclear translocation (FIG. 38C), thereby down-regulating CRE-luc activation
